The experiment addresses T1, HIS-ABI3 fusion protein (Arabidopsis thaliana, UniProt Q01593 1-720).
T1 sequence (looked up): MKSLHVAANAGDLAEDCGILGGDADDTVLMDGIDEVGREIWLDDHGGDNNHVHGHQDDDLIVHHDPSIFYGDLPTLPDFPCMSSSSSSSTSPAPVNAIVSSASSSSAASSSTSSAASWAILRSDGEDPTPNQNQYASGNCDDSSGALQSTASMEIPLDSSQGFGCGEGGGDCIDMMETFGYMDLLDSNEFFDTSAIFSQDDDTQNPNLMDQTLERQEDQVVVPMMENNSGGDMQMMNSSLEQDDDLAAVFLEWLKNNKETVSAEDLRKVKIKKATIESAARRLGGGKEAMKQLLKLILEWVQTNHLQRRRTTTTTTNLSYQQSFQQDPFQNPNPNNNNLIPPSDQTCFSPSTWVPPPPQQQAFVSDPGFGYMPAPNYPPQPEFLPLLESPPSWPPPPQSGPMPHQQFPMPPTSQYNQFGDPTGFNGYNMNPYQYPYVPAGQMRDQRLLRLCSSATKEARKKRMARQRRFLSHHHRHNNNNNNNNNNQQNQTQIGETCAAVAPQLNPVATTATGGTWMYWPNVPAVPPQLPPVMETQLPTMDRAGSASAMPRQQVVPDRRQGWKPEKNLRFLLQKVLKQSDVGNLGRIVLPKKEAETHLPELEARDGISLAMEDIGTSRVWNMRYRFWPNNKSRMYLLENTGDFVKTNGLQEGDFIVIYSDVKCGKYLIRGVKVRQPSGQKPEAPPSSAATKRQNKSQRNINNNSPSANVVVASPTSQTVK
Put plainly: pull-down.

B1: GST-ERF1 fusion protein (natural protein)
chain: not shown
Regarding B1, the binding result is recorded as “binds”.
